Data set [1] deals with apo E knockout mice. Kind of data set: Aortic lesion area (Sudan IV staining) in LBP-immunized apo E knockout mice. Type of data set: in vivo, mouse. Conditions: for Effect of immunization on lesions / lesion area: apo E knockout mice; for Lesion Area % Coverage: apo E mice, 26 weeks of age, control 9.40. On the procedure: (§1) Separate immunization experiments were performed with each of LBP-1, LBP-2, and LBP-J. Immunity was induced by injecting apo E knockout mice with the LBP protein (LBP-1, LBP-2, or LBP-3) together with an RIBI adjuvant (RIBI ImmunoChem Research, Inc., Hamilton, Mont.). Apo E knockout mice (Jackson Laboratories, Bar Harbor, Me.) are hyperlipidemic and thus a model for human atherosclerosis. Apo E knockout mice have high levels of plasma cholesterol and develop naturally-occurring atherosclerotic-like lesions.
(§2) Four week old apo E knockout mice (Jackson Laboratories, Bar Harbor, Me.) were ear tagged, randomly assigned to different cages and weighed. Body weights were determined weekly. Animals were allowed to habituate for 1 week. Normal rodent chow was provided ad libitum and animals were maintained in a 12:12 light:dark cycle. The following four groups of mice were treated with either recombinant LBP proteins (40 μg of recombinant protein/mouse) plus RIBI adjuvant or RIBI adjuvant alone (control group).
(§3) Apo E knockout mice were sacrificed at 26 weeks of age. The mice were anesthetized with methoxyfluorane and exanguinated via cardiac puncture. A midline thoracotomy was performed, a cannula inserted into the right ventricle and perfusate allowed unrestricted flow via an incision into the right atrium. The mice were perfused with saline, followed by 10% phosphate buffered formalin until fasciculations stopped. At this time, the aorta was exposed and adventitial fat removed in situ. The aorta was then removed from the heart down to the iliac bifurcation and placed in 10% phosphate buffered formalin overnight.
The aorta was stained as follows: after a brief 70% ethanol rinse, it was immersed in a filtered solution of 0.5% (weight/volume) Sudan IV in 35% ethanol/50% acetone with continuous shaking for 10 minutes at room temperature. Unbound dye was removed by incubating the aorta in an 80% ethanol solution with shaking until the background color was clear. The vessel was then rinsed in distilled water, placed in physiological saline and opened longitudinally from the aortic arch down to the iliac bifurcation. The vessel was pinned out and photographed. Photographs were then digitized using an Astra 1200S scanner (UMAX Technologies Inc., Freemont, Calif.) and a commercially available graphics program (Canvas; Deneba Software, Miami Fla.). Total and lesion areas were determined using the signal processing toolbox of MATLAB (The Mathworks Inc., Natick, Mass.). Percent involvement was calculated by dividing lesion area by total area.

In data set [2] the test system is LDL receptor negative knockout mice. Kind of data set: Lesions in LBP-immunized LDL receptor negative knockout mice. Format: in vivo, mouse. Conditions: P>0.05.
Data set [3] concerns apo E knockout mice. Briefly: Aortic cholesterol content (cholesterol extraction method) in LBP-immunized apo E knockout mice. Conditions: for Arterial Wall Cholesterol: apo E mice. Format: in vivo, mouse. The method, then:
as §1, §2, §3
A second analysis was done to measure aortic atherosclerosis by a cholesterol extraction method whereby cholesterol is determined as a unit weight of artery. This method may be more accurate in measuring lesion size than attempting to measure the thickness of many sections. Specifically, the weight of an artery was measured, then the cholesterol was extracted. Aortic cholesterol content was then measured by gas-liquid chromatography. The amount of cholesterol per unit weight of artery was then determined.

A short description of data set [4]: Body weight and serum lipids of LBP-immunized apo E knockout mice. Format: in vivo, mouse. The settings on record: P>0.05. The method, then: as §2
Blood samples were analyzed for total cholesterol, HDL cholesterol, and triglyceride concentration with a commercially available total cholesterol and triglycerides assay kits (Sigma; St. Louis Mo.) using an ELISA format. HDL concentration was determined after Apo B containing lipoproteins were precipitated using heparin/MnCl2.
Data were analyzed using T-tests and Wilcoxons.

The target in data set [5] is T1, LDL (Homo sapiens, UniProt P04114).
T1 construct: LDL was prepared from the plasma of normolipemic donors; from tissue; host or cells: blood plasma of normolipemic donors, density ultracentrifugation
T1 sequence (P04114 28-4563): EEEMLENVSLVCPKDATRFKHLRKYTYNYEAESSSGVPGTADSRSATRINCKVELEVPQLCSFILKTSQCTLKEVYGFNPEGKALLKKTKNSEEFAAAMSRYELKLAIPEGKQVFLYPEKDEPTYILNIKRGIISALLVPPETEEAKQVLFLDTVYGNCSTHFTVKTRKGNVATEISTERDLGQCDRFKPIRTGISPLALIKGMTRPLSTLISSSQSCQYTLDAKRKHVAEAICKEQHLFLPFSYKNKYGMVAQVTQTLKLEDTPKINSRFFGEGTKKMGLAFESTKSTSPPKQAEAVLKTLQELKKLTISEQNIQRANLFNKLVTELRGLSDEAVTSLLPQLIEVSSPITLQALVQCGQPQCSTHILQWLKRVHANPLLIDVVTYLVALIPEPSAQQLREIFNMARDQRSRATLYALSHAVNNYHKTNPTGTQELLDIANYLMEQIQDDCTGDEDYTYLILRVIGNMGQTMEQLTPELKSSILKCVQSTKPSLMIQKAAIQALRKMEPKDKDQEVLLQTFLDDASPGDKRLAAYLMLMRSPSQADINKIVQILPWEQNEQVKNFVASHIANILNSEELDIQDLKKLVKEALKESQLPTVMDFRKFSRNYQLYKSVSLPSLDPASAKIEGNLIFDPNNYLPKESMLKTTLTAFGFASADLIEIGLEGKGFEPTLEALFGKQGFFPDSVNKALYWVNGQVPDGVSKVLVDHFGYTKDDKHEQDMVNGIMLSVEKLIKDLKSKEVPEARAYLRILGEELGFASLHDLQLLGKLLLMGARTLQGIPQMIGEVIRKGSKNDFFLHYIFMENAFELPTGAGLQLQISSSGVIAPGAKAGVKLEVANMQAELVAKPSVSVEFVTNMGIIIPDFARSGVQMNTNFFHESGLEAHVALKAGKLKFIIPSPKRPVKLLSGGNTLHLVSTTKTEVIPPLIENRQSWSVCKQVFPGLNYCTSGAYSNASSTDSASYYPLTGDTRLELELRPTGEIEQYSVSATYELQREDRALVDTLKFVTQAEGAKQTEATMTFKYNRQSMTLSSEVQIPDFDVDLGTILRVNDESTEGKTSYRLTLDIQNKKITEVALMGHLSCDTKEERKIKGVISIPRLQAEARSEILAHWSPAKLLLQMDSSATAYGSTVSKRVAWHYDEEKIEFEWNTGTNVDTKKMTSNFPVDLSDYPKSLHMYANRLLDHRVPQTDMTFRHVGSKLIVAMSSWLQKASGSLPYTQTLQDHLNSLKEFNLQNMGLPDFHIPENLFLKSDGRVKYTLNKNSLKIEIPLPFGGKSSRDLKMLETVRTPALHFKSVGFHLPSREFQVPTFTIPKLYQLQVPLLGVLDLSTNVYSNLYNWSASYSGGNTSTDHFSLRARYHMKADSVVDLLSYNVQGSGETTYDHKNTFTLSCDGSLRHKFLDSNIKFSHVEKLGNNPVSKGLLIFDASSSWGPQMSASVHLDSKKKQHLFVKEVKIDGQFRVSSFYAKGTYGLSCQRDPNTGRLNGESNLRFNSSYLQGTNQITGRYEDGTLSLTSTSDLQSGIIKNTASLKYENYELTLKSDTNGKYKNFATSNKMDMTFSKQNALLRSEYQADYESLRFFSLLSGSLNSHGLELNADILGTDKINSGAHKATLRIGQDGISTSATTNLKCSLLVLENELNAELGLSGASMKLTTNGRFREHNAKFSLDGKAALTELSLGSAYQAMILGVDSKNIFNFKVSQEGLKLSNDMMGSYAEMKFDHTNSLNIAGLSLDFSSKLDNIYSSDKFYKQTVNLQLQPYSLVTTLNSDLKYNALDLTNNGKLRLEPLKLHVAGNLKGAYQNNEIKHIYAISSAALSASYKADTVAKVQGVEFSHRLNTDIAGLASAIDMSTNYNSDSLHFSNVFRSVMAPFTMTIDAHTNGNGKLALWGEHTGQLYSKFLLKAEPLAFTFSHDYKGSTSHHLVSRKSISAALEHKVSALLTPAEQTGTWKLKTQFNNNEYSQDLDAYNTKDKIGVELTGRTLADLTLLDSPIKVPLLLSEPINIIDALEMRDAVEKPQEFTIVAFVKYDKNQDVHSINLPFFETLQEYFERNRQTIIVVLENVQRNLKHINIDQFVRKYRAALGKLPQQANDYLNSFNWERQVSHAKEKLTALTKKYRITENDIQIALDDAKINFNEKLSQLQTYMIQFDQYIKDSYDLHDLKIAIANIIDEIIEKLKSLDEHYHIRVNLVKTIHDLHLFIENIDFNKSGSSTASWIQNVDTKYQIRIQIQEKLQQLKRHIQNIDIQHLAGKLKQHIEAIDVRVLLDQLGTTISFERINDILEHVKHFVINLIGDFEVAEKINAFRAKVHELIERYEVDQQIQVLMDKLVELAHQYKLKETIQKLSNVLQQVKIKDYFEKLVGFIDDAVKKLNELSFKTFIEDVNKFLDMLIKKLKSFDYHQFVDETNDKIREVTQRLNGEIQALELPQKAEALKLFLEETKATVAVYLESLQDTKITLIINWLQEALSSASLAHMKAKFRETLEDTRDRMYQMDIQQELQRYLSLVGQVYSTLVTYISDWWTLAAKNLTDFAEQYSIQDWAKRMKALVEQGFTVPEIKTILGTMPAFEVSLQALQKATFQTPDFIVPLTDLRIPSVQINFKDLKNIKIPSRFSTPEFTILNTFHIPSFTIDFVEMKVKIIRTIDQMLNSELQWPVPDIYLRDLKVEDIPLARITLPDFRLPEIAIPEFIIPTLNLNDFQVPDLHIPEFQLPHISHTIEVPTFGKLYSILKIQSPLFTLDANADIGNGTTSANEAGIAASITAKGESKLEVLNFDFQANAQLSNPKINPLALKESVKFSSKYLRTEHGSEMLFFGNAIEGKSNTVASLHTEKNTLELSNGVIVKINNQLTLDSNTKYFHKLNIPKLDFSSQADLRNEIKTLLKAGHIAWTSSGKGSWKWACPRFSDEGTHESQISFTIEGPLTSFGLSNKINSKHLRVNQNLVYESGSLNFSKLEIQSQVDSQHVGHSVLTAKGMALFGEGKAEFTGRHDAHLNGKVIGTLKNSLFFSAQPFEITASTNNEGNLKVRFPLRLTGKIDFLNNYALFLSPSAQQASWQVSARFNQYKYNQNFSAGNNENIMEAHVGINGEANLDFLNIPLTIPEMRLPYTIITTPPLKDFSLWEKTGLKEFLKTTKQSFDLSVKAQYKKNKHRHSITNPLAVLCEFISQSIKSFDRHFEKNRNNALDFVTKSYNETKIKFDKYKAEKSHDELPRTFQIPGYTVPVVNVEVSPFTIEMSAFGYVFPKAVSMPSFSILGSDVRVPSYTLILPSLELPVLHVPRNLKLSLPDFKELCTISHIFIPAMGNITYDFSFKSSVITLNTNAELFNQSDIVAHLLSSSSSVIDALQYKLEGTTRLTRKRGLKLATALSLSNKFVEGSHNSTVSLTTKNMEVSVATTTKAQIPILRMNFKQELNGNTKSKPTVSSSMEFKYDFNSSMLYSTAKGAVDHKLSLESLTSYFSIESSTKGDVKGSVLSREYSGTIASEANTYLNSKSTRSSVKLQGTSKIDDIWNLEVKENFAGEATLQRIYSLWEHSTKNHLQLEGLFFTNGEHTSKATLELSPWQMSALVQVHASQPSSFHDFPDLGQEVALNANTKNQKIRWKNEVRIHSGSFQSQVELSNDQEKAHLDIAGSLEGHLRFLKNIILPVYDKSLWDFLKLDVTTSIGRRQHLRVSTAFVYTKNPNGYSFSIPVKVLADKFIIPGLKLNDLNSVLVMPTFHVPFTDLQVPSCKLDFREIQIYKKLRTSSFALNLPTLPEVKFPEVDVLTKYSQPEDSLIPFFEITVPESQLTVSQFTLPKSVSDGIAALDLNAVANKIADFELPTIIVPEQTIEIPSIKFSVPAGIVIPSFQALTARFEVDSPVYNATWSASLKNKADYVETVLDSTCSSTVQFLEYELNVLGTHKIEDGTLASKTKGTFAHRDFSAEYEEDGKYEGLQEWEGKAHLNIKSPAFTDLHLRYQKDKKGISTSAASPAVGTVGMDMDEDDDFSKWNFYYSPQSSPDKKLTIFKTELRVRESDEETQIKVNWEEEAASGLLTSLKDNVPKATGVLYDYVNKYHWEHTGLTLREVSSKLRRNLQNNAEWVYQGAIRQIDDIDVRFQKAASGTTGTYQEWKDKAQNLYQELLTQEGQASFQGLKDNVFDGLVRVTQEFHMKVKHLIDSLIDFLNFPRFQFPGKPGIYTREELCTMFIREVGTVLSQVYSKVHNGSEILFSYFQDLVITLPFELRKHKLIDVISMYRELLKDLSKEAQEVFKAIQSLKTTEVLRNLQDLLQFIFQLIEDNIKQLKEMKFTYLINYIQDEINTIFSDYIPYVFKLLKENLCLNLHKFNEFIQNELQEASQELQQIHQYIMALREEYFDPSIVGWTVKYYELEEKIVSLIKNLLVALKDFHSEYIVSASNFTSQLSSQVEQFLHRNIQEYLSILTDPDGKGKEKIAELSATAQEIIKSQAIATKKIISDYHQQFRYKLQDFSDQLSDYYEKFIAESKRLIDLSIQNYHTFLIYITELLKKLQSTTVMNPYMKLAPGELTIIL
Briefly: Affinity coelectrophoresis (ACE) assay of LBP binding to LDL. Conditions: LDL 540 to 14 nM cast in gel. The method, then: (§4) Analysis of the affinity and specificity of recombinant rabbit LBP-1, LBP-2 or LBP-3 binding to LDL was carried out using the principle of affinity electrophoresis (Lee and Lander, Proc. Natl. Acad. Sci. USA 88:2768-2772 (1991)). Melted agarose (1%; 65° C.) was prepared in 50 mM sodium MOPS, pH 7.0; 125 mM sodium acetate, 0.5% CHAPS. A teflon comb consisting of nine parallel bars (45×4×4 mm/3 mm spacing between bars) was placed onto GelBond film (FMC Bioproducts, Rockland, Me.) fitted to a plexiglass casting tray with the long axis of the bars parallel to the long axis of the casting tray. A teflon strip (66×1×1 mm) was placed on edge with the long axis parallel to the short axis of the casting tray, at a distance of 4 mm from the edge of the teflon comb. Melted agarose (>65° C.) was then poured to achieve a height of approximately 4 mm. […] LDL or HDL samples were prepared in gel buffer (50 mM sodium MOPS, pH 7.0, 125 mM sodium acetate) at twice the desired concentration. Samples were then mixed with an equal volume of melted agarose (in 50 mM MOPS, pH 7.0; 125 mM sodium acetate; 50° C.), pipetted into the appropriate rectangular wells and allowed to gel. The binding affinity and specificity of LBP-1 and LBP-3 was tested using several concentrations of LDL (540 to 14 nM) and HDL (2840177 nM). A constant amount (0.003 nM-0.016 nM) of ^125I-labeled LBP-1, LBP-2 or LBP-3 (suspended in 50 mM sodium MOPS, pH 7.0; 125 mM sodium acetate; 0.5% bromophenol blue; 6% (wt/vol) sucrose) was loaded into the slot. Gels were electrophoresed at 70 v/2 hr/20° C. At the end of the run, the gels were air dried and retardation profiles were visualized by exposure of X-ray films to the gels overnight at −70° C., with intensifying screens.
Rabbit and human LBP-2 contain a long stretch of acidic amino acids at the amino terminal (rabbit LBP-2 amino acid residues 338 through 365 and human LBP-2 amino acid residues 329 through 354). […]

Another data set deals with HDL. Kind of data set: Affinity coelectrophoresis (ACE) assay of LBP binding to HDL. Details: species or system human. The settings on record: HDL cast in gel. On the procedure: as §4, with “A constant amount (0.003 nM-0.016 nM) of ^125I-labeled LBP-1, LBP-2 or LBP-3 (suspended in 50 mM sodium MOPS, pH 7.0; 125 mM sodium acetate; 0.5% bromophenol blue; 6% (wt/vol) sucrose) was loaded into the slot. Gels were electrophoresed at 70 v/2 hr/20° C. At the end of the run, the gels were air dried and retardation profiles were visualized by exposure of X-ray films to the gels overnight at −70° C., with intensifying screens.” left out

In data set [6] the target is T1, LDL. Kind of data set: ACE competition: cold LBP versus radiolabeled LBP binding to LDL. Conditions: fixed cold LDL and radiolabeled LBP, increasing cold recombinant LBP. The method, then: Competition studies were carried out using fixed concentrations of cold LDL and radiolabeled LBP-1 and increasing amounts of cold recombinant LBP-1 (6-31 μM). The ACE assay samples and gel were prepared as described herein.
Competition studies using fixed concentrations of cold LDL and clone 26 derived radiolabeled LBP-2 and increasing concentrations of cold recombinant LBP-2/clone 26 and LBP-a/clone 45 were carried out.

Data set [7] concerns ballooned deendothelialized rabbit aorta. Kind of data set: Radiolabeled LDL accumulation in ballooned deendothelialized abdominal aorta after active immunization. Format: in vivo. Conditions: immunized with RIBI adjuvant; corrected for dosage and percent reendothelialization; 24 hr after 125I-LDL. On the procedure: Immunity was induced in male New Zealand White rabbits (Hazelton Research Products, Denver, Pa.) as follows: A mixture of purified human recombinant LBP-2 or BHF-1 peptide (1 ml; 1 mg) and RIBI adjuvant (RIBI ImmunoChem Research, Inc., Hamilton, Mont.) was injected subcutaneously at 2-5 sites along the dorsal thoracic and abdominal regions of the rabbits. Blood was collected by venipuncture on days 1 (preimmune bleeding), 35, 63, and 91. Booster injections were administered on days 28 (500 μg; SC), 56 (250 μg; SC), and 84 (125 μg; SC).
On day 93, the abdominal aorta of immunized and control rabbits was deendothelialized using a Fogarty number 4 embolectomy catheter (Chang et al., Arteriosclerosis and Thrombosis 12:1088-1098 (1992)). Four weeks after ballooning, rabbits received a bolus injection of ^125I-labeled LDL (1 ml; i.v.). […] Blood samples were centrifuged for 30 min at 2000 rpm ([…]) and total activity present in the serum was determined using a Gamma counter. Total TCA precipitable counts were determined by addition of TCA to the serum to a final concentration of 10% followed by incubation for 10 min at 4° C. Serum samples were then centrifuged (2000 rpm; 30 min; […]) and total activity present in the supernate was determined. TCA precipitable counts were calculated by subtraction: total soluble counts minus counts present in the supernate after TCA precipitation. […]

The values below come from patent US7807384B2, “Low density lipoprotein binding proteins and their use in diagnosing and treating atherosclerosis” (Boston Heart Foundation, Inc., priority 1996, dated 2010).

B1: LBP-3: rabbit recombinant LDL binding protein LBP-3 (6-His tag), SEQ ID NO: 5 (protein, listed as Oryctolagus cuniculus)
chain: MKNQDKKNGAAKQPNPKSSPGQPEAGAEGAQGRPGRPAPAREAEGASSQAPGRPEGAQAKTAQPGALCDVSEELSRQLEDILSTYCVDNNQGAPGEDGVQGEPPEPEDAEKSRAYVARNGEPEPGTPVVNGEKETSKAEPGTEEIRTSDEVGDRDHRRPQEKKKAKGLGKEITLLMQTLNTLSTPEEKLAALCKKYAELLEEHRNSQKQMKLLQKKQSQLVQEKDHLRGEHSKAILARSKLESLCRELQRHNRSLKEEGVQRAREEEEKRKEVTSHFQMTLNDIQLQMEQHNERNSKLRQENMELAERLKKLIEQYELREEHIDKVFKHKDLQQQLVDAKLQQAQEMLKEAEERHQREKDFLLKEAVESQRMCELMKQQETHLKQQLALYTEKFEEFQNTLSKSSEVFTTFKQEMEKMTKKIKKLEKETTMYRSRWESSNKALLEMAEEKTLRDKELEGLQVKIQRLEKLCRALQTERNDLNKRVQDLSAGGQGPVSDSGPERRPEPATTSKEQGVEGPGAQVPNSPRATDASCCAGAPSTEASGQTGPQEPTTATA
modifications: 6-His tag
With B1, in the data set on apo E knockout mice [1], the “Effect of immunization on lesions / lesion area” value is listed as “did not have a significant effect” and the “Lesion Area % Coverage” value is reported as 7.14%. Further, the “Effect of immunization on lesions” value in data set [2] is “did not have a significant effect”. For the same molecule, in the data set on apo E knockout mice [3] (26 weeks of age, control 6.33), the “Arterial Wall Cholesterol” value came to 4.48 ug cholesterol/mg aorta. Besides, the “Effect of immunization on body weight” value in data set [4] is “did not have a significant effect”. Moreover, in the data set with LDL [5], the “Retardation of radiolabeled LBP migration through the gel by LDL” value is listed as “concentration-dependent, saturable manner”. Also, the “Retardation of radiolabeled LBP migration by HDL” value in the data set with HDL is on record as “did not retard”. In the data set with LDL [6], the “Inhibition by cold LBP of radiolabeled LBP binding to LDL” value is recorded as “inhibited binding”.

B2: recombinant human LBP-2: purified human recombinant LBP-2 used as immunogen with RIBI adjuvant (protein)
chain: EERVLEKEEEEDDDEDEDEEDDVSEGSEVPESDRPAGAQHHQLNGERGPQSAKERVKEWTPCGPHQGQDEGRGPAPGSGTRQVFSMAAMNKEGGTASVATGPDSPSPVPLPPGKPALPGADGTPFGCPPGRKEKPSDPVEWTVMDVVEYFTEAGFPEQATAFQEQEIDGKSLLLMQRTDVLTGLSIRLGPALKIYEHHIKVLQQGHFEDDDPDGFLG
As to B2, the “Accumulation of radiolabeled LDL in ballooned abdominal aorta versus nonimmune-ballooned rabbits” value in data set [7] is “lower accumulation”.

B3: LBP-2: rabbit recombinant LBP-2 clone 26 (6-His tag), contains the acidic region (protein)
chain: PPPPQQPQPPPEGGAARAGGPARPVSLREVVRYLGGSSGAGGRLTRGRVQGLLEEEAAARGRLERTRLGALALPRGDRPGRAPPAASARAARNKRAGEERVLEKEEEEEEEEDDEDDDDDVVSEGSEVPESDRPAGAQHHQLNGGERGPQTAKERAKEWSLCGPHPGQEEGRGPAAGSGTRQVFSMAALSKEGGSASSTTGPDSPSPVPLPPGKPALPGADGTPFGCPAGRKEKPADPVEWTVMDVVEYFTEAGFPEQATAFQEQEIDGKSLLLMQRTDVLTGLSIRLGPALKIYEHHIKVLQQGHFEDDDPEGFLG
modifications: left off: small tags and cut ends
notes: rabbit recombinant LBP-2 clone 26 (6-His tag), contains the acidic region
B3: in the data set on apo E knockout mice [1], the “Effect of immunization on lesions / lesion area” value is “significant effect”. Also, the “Lesion Area % Coverage” value in the data set with apo E knockout mice [1] is listed as 6.01%. Also, the “Effect of immunization on arterial wall cholesterol content” value in the data set on apo E knockout mice [3] (apo E knockout mice, once outliers were deleted) was “significant effect”. Moreover, the “Arterial Wall Cholesterol” value in the data set on apo E knockout mice [3] (26 weeks of age, control 6.33) is recorded as 3.28 ug cholesterol/mg aorta; in the data set on apo E knockout mice [3] (outliers deleted), 1.83 ug cholesterol/mg aorta. The “Effect of immunization on body weight” value in data set [4] is reported as “did not have a significant effect”. The “Retardation of radiolabeled LBP migration through the gel by LDL” value in the data set with LDL [5] was “concentration-dependent, saturable manner”; with LDL [5] (listed as clone 26), “concentration-dependent, saturable, manner”. Besides, the “Retardation of radiolabeled LBP migration by HDL” value in the data set on HDL is on record as “did not retard”. Further, the “Inhibition by cold LBP of radiolabeled LBP binding to LDL” value in the data set with LDL [6] was “inhibited binding”.
